Results reported in US20210403579A1 (DELINIA, published 2021).

T1: Human ST2 (human, UniProt Q01638 19-328, limits assumed)
T1 construct: also called human ST2 protein; Interleukin 1 receptor-like 1
T1 sequence (looked up): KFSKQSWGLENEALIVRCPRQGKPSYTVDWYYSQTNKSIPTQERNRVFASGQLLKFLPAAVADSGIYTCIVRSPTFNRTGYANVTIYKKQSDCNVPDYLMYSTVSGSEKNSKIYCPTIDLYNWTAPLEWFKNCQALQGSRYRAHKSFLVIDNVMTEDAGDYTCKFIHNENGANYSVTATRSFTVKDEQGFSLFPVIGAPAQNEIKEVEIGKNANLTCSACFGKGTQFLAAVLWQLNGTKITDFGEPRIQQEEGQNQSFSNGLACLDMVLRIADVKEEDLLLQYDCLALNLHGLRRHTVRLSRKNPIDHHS


target: T1, Human ST2; test: SPR (Carterra), antibody immobilized, ST2 analyte
Description: Binding of the reformatted human ST2 antibodies to the human and mouse ST2 proteins was evaluated by surface plasmon resonance (SPR), using a high throughput antibody screening and characterization platform from Carterra (Salt Lake City, Utah).

Binder	Kd [nM]	koff [s⁻¹]	kon [M⁻¹ s⁻¹]
Human ST2 IgG1 Antibody 2 (antibody, V domains shown, IgG1; also called ST2 Antibody 2) VH: QVQLVQSGAEVKKPGSSVKVSCKASGYTFSDYYVHWVRQAPGQGLEWMGGIIPIVGTANYAQKFQGRVTITADESTSTAYMELSSLRSEDTAVYYCARAGGGDYKSYYFDYWGRGTLVTVSS VL: not shown	229	0.11	500000
Human ST2 IgG1 Antibody 11 (antibody, V domains shown, IgG1; also called ST2 Antibody 11) VH: QVQLVQSGAEVKKPGASVKVSCKASGGTFSSYAISWVRQAPGQGLEWMGWINPNSGGTNYAQKFQGRVTMTRDTSTSTVYMELSSLRSEDTAVYYCAMDTNYYYGMDVWGQGTTVTVSS VL: DIQMTQSPSSLSASVGDRVTITCQASEDIANNLNWYQQKPGKAPKLLIYAASSLQSGVPSRFSGSGSGTDFTLTISSLQPEDFATYYCQQGYNIPFTFGQGTKLEIKR	25	0.019	780000
Human ST2 IgG1 Antibody 3 (antibody, V domains shown, IgG1; also called ST2 Antibody 3) VH: QVQLVQSGAEVKKPGSSVKVSCKASGGTFSSYAFSWVRQAPGQGLEWMGGIIPIFGTPNYAQKFQGRVTITADESTSTAYMELSSLRSEDTAVYYCARVRAKRPNWYFDLWGRGTLVTVSS VL: not shown	146	0.042	290000
Human ST2 IgG1 Antibody 4 (antibody, V domains shown, IgG1; also called ST2 Antibody 4) VH: QVQLVQSGAEVKKPGSSVKVSCKASGGTFSTFGVSWVRQAPGQGLEWMGRIIPILATTNYAQKFQGRVTITADESTSTAYMELSSLRSEDTAVYYCASGDYYDSSGYYGYFQHWGQGTLVTVSS VL: EIVMTQSPATLSVSPGERATLSCRASQSVSSSYLAWYQQKPGQAPRLLIYGASTRATGIPARFSGSGSGTEFTLTISSLQSEDFAVYYCQQSYSIPFTFGQGTKLEIKR	12	0.0025	210000
Human ST2 IgG1 Antibody 1 (antibody, V domains shown, IgG1; also called ST2 Antibody 1) VH: QVQLVQSGAEVKKPGSSVKVSCKASGGTFSSYAISWVRQAPGQGLEWMGGIIPIFGTANYAQKFQGRVTITADESTSTAYMELSSLRSEDTAVYYCAKSILGGRIFGGYFDLWGRGTLVTVSS VL: DIVMTQSPLSLPVTPGEPASISCRSSQSLLHSNGYNYLDWYLQKPGQSPQLLIYAASSLQSGVPDRFSGSGSGTDFTLKISRVEAEDVGVYYCMQALQTPPTFGQGTKVEIKR	617	0.072	120000
Human ST2 IgG1 Antibody 8 (antibody, V domains shown, IgG1; also called ST2 Antibody 8) VH: QVQLVQSGAEVKKPGASVKVSCKASGGTFSSYAISWVRQAPGQGLEWMGWISPDNGNTNYAQKLQGRVTMTRDTSTSTVYMELSSLRSEDTAVYYCARLAYDTGYYYYYYMDVWGKGTTVTVSS VL: DIVMTQSPLSLPVTPGEPASISCRSSQSLLHSNGYNYLDWYLQKPGQSPQLLIYAASTLQSGVPDRFSGSGSGTDFTLKISRVEAEDVGVYYCMQGTHWPLTFGQGTKVEIKR	153	0.017	110000
Human ST2 IgG1 Antibody 10 (antibody, V domains shown, IgG1; also called ST2 Antibody 10) VH: QVQLVQSGAEVKKPGSSVKVSCKASGGTFGYYAISWVRQAPGQGLEWMGGIIPMVGTGQYAQEFQGRVTITADESTSTAYMELSSLRSEDTAVYYCAGVEVGATRGYFQHWGQGTLVTVSS VL: DIVMTQSPLSLPVTPGEPASISCRSSQSLLHSNGYNYLDWYLQKPGQSPQLLIYAASTLQSGVPDRFSGSGSGTDFTLKISRVEAEDVGVYYCMQGTHWPTTFGQGTRLEIKR	131	0.079	600000
Human ST2 IgG1 Antibody 7 (antibody, V domains shown, IgG1; also called ST2 Antibody 7) VH: QVQLVQSGAEVKKPGASVKVSCKASGYTFTDSYIHWVRQAPGQGLEWMGWMNPNSGNTGYAQKFQGRVTMTRDTSTSTVYMELSSLRSEDTAVYYCARGVFDYGDYGYYYHYMDVWGKGTTVTVSS VL: DIVMTQSPLSLPVTPGEPASISCRSSQSLLHSNGYNYLDWYLQKPGQSPQLLIYGASTLQPGVPDRFSGSGSGTDFTLKISRVEAEDVGVYYCMQGTQWPTFGQGTKLEIKR	15	0.0044	290000
Human ST2 IgG1 Antibody 5 (antibody, V domains shown, IgG1; also called ST2 Antibody 5) VH: EVQLLESGGGLVQPGGSLRLSCAASGFTFSSYWMSWVRQAPGKGLEWVSSISSDTTYKYYADSVKGRFTISRDNSKNTLYLQMNSLRAEDTAVYYCAREVDTAMKNWGQGTLVTVSS VL: DIQMTQSPSSLSASVGDRVTITCRASQGIGNDLAWYQQKPGKAPKLLIYAASSLQSGVPSRFSGSGSGTDFTLTISSLQPEDFATYYCQQSYSTPYTFGQGTKVEIKR	190	0.048	250000
Human ST2 IgG1 Antibody 6 (antibody, V domains shown, IgG1; also called ST2 Antibody 6) VH: EVQLLESGGGLVKPGGSLRLSCAASGFTFSSYWMSWVRQAPGKGLEWVSAIGGSGAGTYYADSVKGRFTISLDDSKNTLYLQMNSLKTEDTAVYYCARLSTVTRGFDYWGQGTLVTVSS VL: DIQMTQSPSSLSASVGDRVTITCRASQSISNWLAWYQQKPGKAPKLLIYSASSLQNGVPSRFSGSGSGTDFTLTISSLQPEDFATYYCQQSYSTPPTFGQGTKVEIKR	166	0.057	340000
Human ST2 IgG1 Antibody 9 (antibody, V domains shown, IgG1; also called ST2 Antibody 9) VH: EVQLLESGGGLVQPGGSLRLSCAASGFAFSSHWMHWVRQAPGKGLEWVATISSGSHSIHYADSVKGRFTISRDNSKNTLYLQMNSLRAEDTAVYYCAREAGTSYYYYGMDVWGKGTTVTVSS VL: DIQMTQSPSSLSASVGDRVTITCQASQDIRNYLNWYQQKPGKAPKLLIYKASSLESGVPSRFSGSGSGTDFTLTISSLQPEDFATYYCQQSYSTPPTFGGGTKVEIKR	293	0.036	120000

The next lines start with the values.

Kd [nM]	koff [s⁻¹]	kon [M⁻¹ s⁻¹]	Binder
96	0.056	580000	Human ST2 IgG1 Antibody 16 (antibody, V domains shown, IgG1; also called ST2 Antibody 16) VH: QVQLVQSGAEVKKPGASVKVSCKASGYTFTSHYMHWVRQAPGQGLEWMGIINPSGGSTSYAQKFQGRVTMTRDTSTSTVYMELSSLRSEDTAVYYCARAGIGYLAAHDLYYYYGMDVWGRGTLVTVSS VL: EIVMTQSPATLSVSPGERATLSCRASQSVSSNFAWYQQKPGQAPRLLIYGASTRATGIPARFSGSGSGTEFTLTISSLQSEDFAVYYCQQYYSTPYTFGQGTKVEIKR
1100	0.11	95000	Human ST2 IgG1 Antibody 18 (antibody, V domains shown, IgG1; also called ST2 Antibody 18) VH: QVQLVQSGAEVKKPGSQVKVSCKASGYTFTSFGISWVRQAPGQGLEWLGGIIPTLGTANYAQKFQGRVTITADDSTSTAYMELSSLRSEDTAVYYCAGGAAAGPDKYYGMDVWGQGTTVTVSS VL: not shown
81	0.065	810000	Human ST2 IgG1 Antibody 20 (antibody, V domains shown, IgG1; also called ST2 Antibody 20) VH: EVQLLESGAEVKKPGSSVKVSCKASGGTFSSYAISWVRQAPGQGLEWMGGIIPIFGTANYAQKFQGRVTITADESTSTAYMELSSLRSEDTAVYYCASGFYSNDLYYYYYMDVWGKGTTVTVSS VL: DIQMTQSPSSLSASVGDRVTITCRASQSISSWLAWYQQKPGKAPKLLIYDASNLKTGVPSRFSGSGSGTDFTLTISSLQPEDFATYYCQQTYAIPLTFGGGTKVEIKR
769	0.14	190000	Human ST2 IgG1 Antibody 15 (antibody, V domains shown, IgG1; also called ST2 Antibody 15) VH: QVQLVQSGAEVKKPGSSVKVSCKASGGTFSSYAISWVRQAPGQGLEWMGGIIPMFGTTNYAQKFQGRVTITADESTSTAYMELSSLRSEDTAVYYCATVAAAGPNWYFDLWGRGTLVTVSS VL: DIQMTQSPSSLSASVGDRVTITCQASQGISNYLNWYQQKPGKAPKLLIYAASTLQSGVPSRFSGSGSGTDFTLTISSLQPEDFATYYCQQSYSTPPTFGQGTKVEIKR
201	0.04	200000	Human ST2 IgG1 Antibody 13 (antibody, V domains shown, IgG1; also called ST2 Antibody 13) VH: QVQLVQSGAEVKKPGSSVKVSCKASGYTFTDYYMHWVRQAPGQGLEWMGGIMPLFGTIKYAQELQGRVTITADESTSTAYMELSSLRSEDTAVYYCARGRVGATDYWGQGTLVTVSS VL: not shown
42	0.017	400000	Human ST2 IgG1 Antibody 14 (antibody, V domains shown, IgG1; also called ST2 Antibody 14) VH: QVQLVQSGAEVKKPGSSVKVSCKASGYTFTSYGISWVRQAPGQGLEWMGGIIPIFGTANYAPRFQGRVTITADESTSTAYMELSSLRSEDTAVYYCARDTVSMDVWGQGTTVTVSS VL: DIVMTQSPLSLPVTPGEPASISCRSSQSLLHSNGYNYLDWYLQKPGQSPQLLIYDASNLETGVPDRFSGSGSGTDFTLKISRVEAEDVGVYYCMQGAHWPPTFGQGTKLEIKR
433	0.033	76000	Human ST2 IgG1 Antibody 17 (antibody, V domains shown, IgG1; also called ST2 Antibody 17) VH: QVQLVQSGAEVKKPGASVKVSCKASGYTFTDSFMFWVRQAPGQGLEWVGLINPGTGATIFAQKFQGRVTMTRDTSTSTVYMELSSLRSEDTAVYYCARSSDYDSSDYWGQGTLVTVSS VL: DIQMTQSPSSLSASVGDRVTITCRASQSISTWLAWYQQKPGKAPKLLIYGASSLQSGVPSRFSGSGSGTDFTLTISSLQPEDFATYYCQQSYNSPYTFGQGTKVEIKR
113	0.062	550000	Human ST2 IgG1 Antibody 19 (antibody, V domains shown, IgG1; also called ST2 Antibody 19) VH: EVQLLESGGGLVQPGGSLRLSCAASGFSFSHAWMSWVRQAPGKGLEWVSVIHSGGSTFYADSVKGRFTISRDNSKNTLYLQMNSLRAEDTAVYYCARIGKGGGFDYWGQGTLVTVSS VL: DIQMTQSPSSLSASVGDRVTITCRASQDIGSWLAWYQQKPGKAPKLLIYAASSLQSGVPSRFSGSGSGTDFTLTISSLQPEDFATYYCQQSYSTPPTFGQGTKVEIKR
217	0.024	110000	Human ST2 IgG1 Antibody 12 (antibody, V domains shown, IgG1; also called ST2 Antibody 12) VH: QVQLVQSGAEVKKPGASVKVSCKASGYTFTGYYMHWVRQAPGQGLEWMGIIDPSGGGTSYAQKFQGRVTMTRDTSTSTVYMELSSLRSEDTAVYYCAKDIVVVPAAIANYYYGMDVWGQGTTVTVSS VL: DIQMTQSPSSLSASVGDRVTITCRVSQGISNYLNWYQQKPGKAPKLLIYGASTLQSGVPSRFSGSGSGTDFTLTISSLQPEDFATYYCQQSYSTPWTFGPGTKVDIKR
